Laboratory results taken from publication doi:10.1101/852715.

Molecular target: NSTTR, artificially mutated variant of TTR carrying the double mutation N99R/S100R
Experiment: SEC-MALS

- stoichiometry N: 4
Substance: NSTTR, artificially mutated variant of TTR carrying the double mutation N99R/S100R (natural protein)
